Results taken from US20240150495A1 (F STAR BIOTECHNOLOGISCHE FORSCHUNGS UND ENTWICKLUNGSGES M B …, published 2024).

Target: T1, Fcab-wt (human, UniProt P01857-1 99-330 = IgG part)
T1 construct: Negative control
Assay: ELISA on coated human ανβ3 integrin, HRP labelled protein A
Method: For the integrin ELISA, 1 ug/ml human ανβ3 integrin in PBS was coated over night on Maxisorp plates and blocked for 1 h with BSA in PBS containing 1 mM Ca2+. […] Bound Fcabs were detected by HRP labelled protein A and TMB as a substrate.

binding result: no binding (tested: 10 ug/ml)
B1: human ανβ3 integrin (Chemicon) (receptor)
chain 1: FNLDVDSPAEYSGPEGSYFGFAVDFFVPSASSRMFLLVGAPKANTTQPGIVEGGQVLKCDWSSTRRCQPIEFDATGNRDYAKDDPLEFKSHQWFGASVRSKQDKILACAPLYHWRTEMKQEREPVGTCFLQDGTKTVEYAPCRSQDIDADGQGFCQGGFSIDFTKADRVLLGGPGSFYWQGQLISDQVAEIVSKYDPNVYSIKYNNQLATRTAQAIFDDSYLGYSVAVGDFNGDGIDDFVSGVPRAARTLGMVYIYDGKNMSSLYNFTGEQMAAYFGFSVAATDINGDDYADVFIGAPLFMDRGSDGKLQEVGQVSVSLQRASGDFQTTKLNGFEVFARFGSAIAPLGDLDQDGFNDIAIAAPYGGEDKKGIVYIFNGRSTGLNAVPSQILEGQWAARSMPPSFGYSMKGATDIDKNGYPDLIVGAFGVDRAILYRARPVITVNAGLEVYPSILNQDNKTCSLPGTALKVSCFNVRFCLKADGKGVLPRKLNFQVELLLDKLKQKGAIRRALFLYSRSPSHSKNMTISRGGLMQCEELIAYLRDESEFRDKLTPITIFMEYRLDYRTAADTTGLQPILNQFTPANISRQAHILLDCGEDNVCKPKLEVSVDSDQKKIYIGDDNPLTLIVKAQNQGEGAYEAELIVSIPLQADFIGVVRNNEALARLSCAFKTENQTRQVVCDLGNPMKAGTQLLAGLRFSVHQQSEMDTSVKFDLQIQSSNLFDKVSPVVSHKVDLAVLAAVEIRGVSSPDHVFLPIPNWEHKENPETEEDVGPVVQHIYELRNNGPSSFSKAMLHLQWPYKYNNNTLLYILHYDIDGPMNCTSDMEINPLRIKISSLQTTEKNDTVAGQGERDHLITKRDLALSEGDIHTLGCGVAQCLKIVCQVGRLDRGKSAILYVKSLLWTETFMNKENQNHSYSLKSSASFNVIEFPYKNLPIEDITNSTLVTTNVTWGIQPAPMPVPVWVIILAVLAGLLLLAVLVFVMYRMGFFKRVRPPQEEQEREQLQPHENGEGNSET
chain 2: GPNICTTRGVSSCQQCLAVSPMCAWCSDEALPLGSPRCDLKENLLKDNCAPESIEFPVSEARVLEDRPLSDKGSGDSSQVTQVSPQRIALRLRPDDSKNFSIQVRQVEDYPVDIYYLMDLSYSMKDDLWSIQNLGTKLATQMRKLTSNLRIGFGAFVDKPVSPYMYISPPEALENPCYDMKTTCLPMFGYKHVLTLTDQVTRFNEEVKKQSVSRNRDAPEGGFDAIMQATVCDEKIGWRNDASHLLVFTTDAKTHIALDGRLAGIVQPNDGQCHVGSDNHYSASTTMDYPSLGLMTEKLSQKNINLIFAVTENVVNLYQNYSELIPGTTVGVLSMDSSNVLQLIVDAYGKIRSKVELEVRDLPEELSLSFNATCLNNEVIPGLKSCMGLKIGDTVSFSIEAKVRGCPQEKEKSFTIKPVGFKDSLIVQVTFDCDCACQAQAEPNSHRCNNGNGTFECGVCRCGPGWLGSQCECSEEDYRPSQQDECSPREGQPVCSQRGECLCGQCVCHSSDFGKITGKYCECDDFSCVRYKGEMCSGHGQCSCGDCLCDSDWTGYYCNCTTRTDTCMSSNGLLCSGRGKCECGSCVCIQPGSYGDTCEKCPTCPDACTFKKECVECKKFDRGALHDENTCNRYCRDEIESVKELKDTGKDAVNCTYKNEDDCVVRFQYYEDSSGKSILYVVEEPECPKGPDILVVLLSVMGAILLIGLAALLIWKLLITIHDRKEFAKFEEERARAKWDTANNPLYKEATSTFTNITYRGT
notes: Bought from Chemicon; coated at 1 ug/ml on Maxisorp plates; also called alpha-v beta-3 integrin
